Substitutions are numbered along the chain they refer to. In names and notes the source's numbering stands.

Here are results for 6 molecules from US20200332006A1 (ULTRAHUMAN NINE, published 2020).

Assay [1] addresses T1, human LSAMP, expressed on HEK293 cells (human, UniProt Q13449 29-315).
T1 construct: also called BC033803
T1 sequence: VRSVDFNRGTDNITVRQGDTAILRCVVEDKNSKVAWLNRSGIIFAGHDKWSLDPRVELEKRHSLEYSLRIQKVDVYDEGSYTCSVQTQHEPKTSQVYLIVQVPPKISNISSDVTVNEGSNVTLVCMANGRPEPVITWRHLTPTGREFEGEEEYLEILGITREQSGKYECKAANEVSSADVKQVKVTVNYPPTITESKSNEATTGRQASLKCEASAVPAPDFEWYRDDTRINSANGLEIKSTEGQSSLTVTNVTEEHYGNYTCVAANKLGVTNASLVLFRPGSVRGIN
The assay is described as follows: flow cytometry on transfected HEK293 cells, no primary antibody.

Assay [2] concerns the target T2, human BTN2A1, expressed on HEK293 cells (human, UniProt Q7KYR7 29-527).
T2 construct: also called NM_007049
T2 sequence: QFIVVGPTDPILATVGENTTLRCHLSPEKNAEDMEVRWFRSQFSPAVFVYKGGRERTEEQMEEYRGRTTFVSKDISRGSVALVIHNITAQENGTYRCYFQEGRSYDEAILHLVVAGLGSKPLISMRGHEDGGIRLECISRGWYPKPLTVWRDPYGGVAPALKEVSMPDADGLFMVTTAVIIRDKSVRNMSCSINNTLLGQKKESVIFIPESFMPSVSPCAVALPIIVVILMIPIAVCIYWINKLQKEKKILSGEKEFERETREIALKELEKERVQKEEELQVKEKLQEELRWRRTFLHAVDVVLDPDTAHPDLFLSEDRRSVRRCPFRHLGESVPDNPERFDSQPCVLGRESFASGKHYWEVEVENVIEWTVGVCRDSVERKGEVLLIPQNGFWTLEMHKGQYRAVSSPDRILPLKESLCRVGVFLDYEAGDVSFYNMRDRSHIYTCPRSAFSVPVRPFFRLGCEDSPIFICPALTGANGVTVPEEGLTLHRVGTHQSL
The description is as above.

The target in assay [3] is T3, human CD20, expressed on HEK293 cells (human, UniProt P11836 1-297).
T3 construct: whole, on cells
T3 sequence (looked up): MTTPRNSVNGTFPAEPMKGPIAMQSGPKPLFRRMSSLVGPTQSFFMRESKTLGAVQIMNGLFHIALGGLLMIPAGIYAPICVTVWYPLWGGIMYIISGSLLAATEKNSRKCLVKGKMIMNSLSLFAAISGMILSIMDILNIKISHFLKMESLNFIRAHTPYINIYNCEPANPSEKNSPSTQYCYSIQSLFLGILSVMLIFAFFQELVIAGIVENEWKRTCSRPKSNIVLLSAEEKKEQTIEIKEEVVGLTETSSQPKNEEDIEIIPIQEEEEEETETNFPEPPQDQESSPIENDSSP
The assay is described as above.

Assay [4] has as its target T4, cynomolgus monkey PD1 human Fc tagged recombinant protein (cynomolgus monkey, UniProt Q15116 25-170 (human entry), limits assumed).
T4 construct: also called cyno PD1-Fc; cyPD1
T4 chain: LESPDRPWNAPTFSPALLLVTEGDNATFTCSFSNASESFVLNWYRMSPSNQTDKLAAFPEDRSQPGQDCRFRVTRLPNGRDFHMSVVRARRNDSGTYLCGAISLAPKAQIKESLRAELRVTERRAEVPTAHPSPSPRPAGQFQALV
The assay is described as follows: direct titration ELISA, IgG1null on coated PD1-Fc (reference antibody). On the procedure:
(§1) Binding and cross-reactivity of the lead panel to the recombinant proteins was initially assessed by binding ELISA. The human PD1 human Fc tagged recombinant protein and the cynomolgus monkey PD1 human Fc tagged recombinant protein were coated to the surface of MaxiSorp™ flat-bottom 96 well plate at 1 μg/ml. The Fab samples were applied at 1:5 dilution in 1% Skimmed Milk/1×PBS; 1 h at RT; 100 μl/well. IgGs were titrated in two fold serial dilutions starting from 500 nM to 0.98 nM and allowed to bind to the coated antigens. The Fabs were detected using mouse anti-c-myc antibody followed by donkey anti-mouse IgG conjugated to horseradish peroxidase. The IgGs were detected using the mouse anti-human IgG conjugated to horseradish peroxidase. Binding signals were visualized with 3,3′,5,5′-Tetramethylbenzidine Substrate Solution (TMB) and the absorbance measured at 450 nm.

For assay [5], the target named is T5, biotinylated human PD1-His/AviTag (human, UniProt Q15116 25-170, biotinylated (AviTag)).
T5 construct: also called biotinylated monomeric human PD1
T5 sequence (Q15116 25-170 limits assumed): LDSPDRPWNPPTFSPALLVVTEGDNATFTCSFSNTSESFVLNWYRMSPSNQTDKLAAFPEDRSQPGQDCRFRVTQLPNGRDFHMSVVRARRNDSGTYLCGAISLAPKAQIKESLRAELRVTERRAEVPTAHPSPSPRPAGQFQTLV
Description: AlphaScreen epitope competition; titrated IgG against mu317 IgG (parental IgG, 0.3 nM) on biotinylated monomeric human PD1. As for the experimental part: (§2) The AlphaScreen assay (Perkin Elmer) was performed in a 25 μl final volume in 384-well white microtiter plates (Greiner). The reaction buffer contained 1×PBS pH 7.3 (Oxoid, Cat. nr. BR0014G) and 0.05% (v/v) Tween® 20 (Sigma, Cat. nr. P9416). Purified IgG samples were titrated in three fold serial dilutions starting at 500 nM final concentration and incubated with biotinylated human PD1-His/AviTag at 0.6 nM final concentration for 20 minutes at room temperature. […] Followed by addition of the Streptavidin Donor beads at 20 μg/ml (final concentration) and incubation for 30 minutes at room temperature. The emission of light was measured in the EnVision multilabel plate reader (Perkin Elmer) and analysed using the EnVision manager software. Values were reported as Counts Per Second (CPS) and corrected for crosstalk.
(In general: Alpha assays give light when donor and acceptor beads are brought close together.)

For assay [6], the target named is T5, biotinylated human PD1-His/AviTag. The assay is described as follows: AlphaScreen epitope competition; competitor mu317 IgG on biotinylated monomeric human PD1. On the procedure:
as §2

The target in assay [7] is T2, human BTN2A1, expressed on HEK293 cells. Description: flow cytometry on live transfected HEK293 cells. As for the experimental part: (§3) FIG. 11. […] Analyses of binding specificity were performed on HEK293 cells transiently transfected with plasmids encoding either human PD1, human BTN2A1, human LSAMP, human CD20 or ZS green marker only. Each antibody was used in staining at […] concentration and histograms are indicated per antibody in this figure.
(§4) Human cell membrane receptor proteome arrays were performed at Retrogenix Ltd. Primary screens: 2 μg/ml of each antibody was screened for binding against fixed HEK293 cells/slides expressing 5528 human plasma membrane and tethered secreted proteins individually. […] Antibody binding was detected using AF647 fluorescent secondary anti-human IgG1 antibody. Primary hits (duplicate spots) were identified by analysing fluorescence (AF647 and ZsGreen1) on ImageQuant. Confirmation/specificity screens: Expression vectors encoding ZsGreen1 only, or ZsGreen1 and CD20, PD1, BTN2A1, or LSAMP were transfected into human HEK293 cells. […] Cells were washed, and incubated with the same AF647 anti-human IgG Fc detection antibody as used in the cell microarray screens. Cells were again washed, and analysed by flow cytometry using an Accuri flow cytometer (BD). A 7AAD live/dead dye was used to exclude dead cells, and ZsGreen1-positive cells (i.e. transfected cells) were selected for analyses.

In assay [8] the target is T1, human LSAMP, expressed on HEK293 cells. Description: flow cytometry on transfected HEK293 cells, 2 ug/ml IgG. As for the experimental part: as §3, §4
In assay [9] the target is T2, human BTN2A1, expressed on HEK293 cells. The description is as above. As for the experimental part:
as §3, §4

Assay [10] deals with T3, human CD20, expressed on HEK293 cells. Described as above. On the procedure: as §3, §4
The target in assay [11] is T6, human PD1 human Fc tagged recombinant protein (human, UniProt Q15116 25-170).
T6 construct: also called human PD1-Fc; huPD1
T6 sequence (Q15116 25-170 limits assumed): as above
Description: direct titration ELISA, IgG1null on coated PD1-Fc. On the procedure:
as §1

The target in assay [12] is T4, cynomolgus monkey PD1 human Fc tagged …. Description: direct titration ELISA, IgG1null on coated PD1-Fc. On the procedure:
as §1

“AF647 anti-human IgG Fc detection antibody alone”: the figures for the fold fluorescence change versus mock (ZSgreen only) cells in assay [1], in assay [2] and in [3] were 1.5 fold, 1.1 fold and 0.9 fold, respectively.

B1: Mu317 murine anti-PD1 v-domains, produced in human IgG1null format (antibody, V domains shown)
VH: QVQLKESGPGLVAPSKNLSITCTVSGFSLTSYGVHWIRQPPGKGLEWLGVIWAGGSTNYNSALMSRLSISKDNSRSQVFLRMNSLQTDDTAMYYCARAYGNYWYIDVWGAGTTVTVSS
VL: DIVMTQTPKFLLVSAGDRVTITCKASQSVSNDVAWYQQKPGQSPKLLINYAFHRFTGVPDRFTGSGYGTDFIFTISTVQAEDLAVYFCHQAYSSPYTFGGGTKLEMK
notes: Tested as IgG1null (human IgG1 with L234A, L235A, G237A) with human Ckappa; also called Mu317 IgG1; parental IgG
The term IC50 denotes the concentration that gives 50% inhibition. B1: the binding result in assay [4] is given as “binds”. The IC50 in assay [5] came out at 0.37 nM.

B2: Antibody MH8, IgG1null format (antibody, V domains shown)
VH: EVQLVESGGGLVQPGGSLRLSCAASGFTFSSYGMSWVRQAPGKGLEWVANIWQDGSTKYVDSVKGRFTISRDNAKNSLYLQMNSLRAEDTAVYYCARAYGNYWYIDRWGQGTTVTVSS
VL: DIVMTQSPDSLAVSLGERATINCKSSQSVTNDVAWYQQKPGQPPKLLINYAYHRFTGVPDRFSGSGYGTDFTLTISSLQAEDVAVYYCHQAYSTPYTFGQGTKLEIK
notes: Tested as IgG1null (human IgG1 L234A, L235A, G237A) with human Ckappa; also called clone MH8
In assay [6], B2 showed an IC50 of 0.39 nM. Further, the binding result in [7] is “no binding (tested: 2 ug/ml)”. For the same molecule, the entries for the “fold fluorescence change versus mock (ZSgreen only) cells” value (“fold fluorescence change versus mock” below) in assay [8], in assay [9] and in [10] were 7.1 fold, 1.1 fold and 0.9 fold, respectively.

B3: Antibody 09C06, IgG1null format (antibody, V domains shown)
VH: B2 VH with T28S, S35H, K58N
VL: B2 VL with T30S, Y52S
notes: Library-derived clone; Tested as IgG1null (human IgG1 L234A, L235A, G237A) with human Ckappa; also called clone 09C06
Turning to B3, the binding result in assay [11] and in assay [12] was “binds” throughout.

B4: Antibody MH4, IgG1null format (antibody, V domains shown)
VH: B2 VH with T28S, F29L, N50V, K58N
VL: B2 VL
notes: Tested as IgG1null (human IgG1 L234A, L235A, G237A) with human Ckappa; also called clone MH4
Consider B4, for which the IC50 in assay [6] amounted to 0.63 nM. For the same molecule, the binding result in assay [7] is reported as “no binding (tested: 2 ug/ml)”. In addition, the “fold fluorescence change versus mock” value in assay [8] is 1.9 fold; in [9], 1.2 fold; in assay [10], 1.1 fold.

B5: Antibody MH12, IgG1null format (antibody, V domains shown)
VH: B2 VH with T57E
VL: B2 VL
notes: Tested as IgG1null (human IgG1 L234A, L235A, G237A) with human Ckappa; also called clone MH12
Consider B5, for which the IC50 in [6] was 0.624 nM. The “fold fluorescence change versus mock” value in assay [8] came to 4.1 fold; in assay [9], 1.3 fold; in [10], 1.1 fold.
